Values of other authors as cited in article PMC6225487.

Molecular target: TfR (Homo sapiens) (UniProt P02786)
Sequence (P02786 89-760): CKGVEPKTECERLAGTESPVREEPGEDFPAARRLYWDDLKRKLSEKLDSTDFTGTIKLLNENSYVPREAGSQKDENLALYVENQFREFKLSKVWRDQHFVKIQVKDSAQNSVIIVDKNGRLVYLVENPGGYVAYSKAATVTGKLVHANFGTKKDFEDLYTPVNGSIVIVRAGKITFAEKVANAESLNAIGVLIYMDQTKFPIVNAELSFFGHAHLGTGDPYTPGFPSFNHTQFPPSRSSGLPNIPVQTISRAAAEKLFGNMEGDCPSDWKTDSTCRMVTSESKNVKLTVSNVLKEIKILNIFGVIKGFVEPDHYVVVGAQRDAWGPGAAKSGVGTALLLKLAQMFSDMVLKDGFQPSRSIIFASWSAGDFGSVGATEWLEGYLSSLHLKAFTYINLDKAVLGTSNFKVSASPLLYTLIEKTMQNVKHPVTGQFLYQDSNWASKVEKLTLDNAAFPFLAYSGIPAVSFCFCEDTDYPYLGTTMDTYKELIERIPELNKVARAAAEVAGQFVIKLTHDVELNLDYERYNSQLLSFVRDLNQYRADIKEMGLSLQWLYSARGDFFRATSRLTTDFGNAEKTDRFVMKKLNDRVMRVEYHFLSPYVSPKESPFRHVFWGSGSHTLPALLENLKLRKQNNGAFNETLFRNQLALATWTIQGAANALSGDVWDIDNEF

Kd: 10 nM
Substance: T7 peptide
